This is an account of results in patent US8124583B2, “Composition and method for self-assembly and mineralization of peptide-amphiphiles” (Northwestern University, priority 2002, dated 2012).

Holding throughout (type): physicochemical
The nature of data set [1]: Gelation of charged peptide amphiphile solutions with ions or with each other. The following applies: positive PA in Ca+2 (reaction 4); negative PA in PO4−3 (reaction 5). An excerpt: In another example of this invention, the composition and method consists of using highly charged peptide amphiphile species (16 carbon alkyl tail with a sequence like CCCCGGGSS(P)DS(P)D (SEQ ID NO: 14) with a −7 charge, for example) dissolved in a solution of negative ions (phosphate ions with a −3 charge), call this solution X. A second solution with a positively-charged peptide amphiphile species (such as 16 carbon alkyl tail with a sequence like ACAAGGGKRGDS (SEQ ID NO: 21)—an amine terminated PA at +1 charge) in a solution with positively-charged ions, such as Ca^2+; call this solution Y. In both solutions the peptide heads are charged and the structural element of the peptide can be varied, to give different charged peptide-amphiphile species, depending on the application.
The positive and negative peptide amphiphiles alone (no added salt ions) will gel each other, reaction 1, when mixed in the right ionic ratios (1:7, (−):(+) in this instance), forming mixed peptide amphiphile nanofibers, theoretically composed of 7 positive peptide amphiphiles for every 1 of the negative peptide amphiphiles. The positive peptide amphiphile solution Y may be gelled, reaction 2, with the negative ions (for example a solution containing phosphate ion PO4^−3). […] Mixing the positive and negative ions (calcium cation with phosphate anion) will make calcium phosphate mineral (reaction 6). […]

A short description of data set [2]: Solubility in water. The following applies: for concentration at which the molecules dissolve: pH 7.5-adjusted water. As to the method:
(§1) The two molecules dissolve in pH 7.5-adjusted water at a concentration of about 10 mg/mL. Molecule 1 has a charge of (−1) and molecule 2 has a charge of (+2) under these conditions.
Cleavage and deprotection of the molecules was accomplished with a mixture of trifluoroacetic acid (TFA) and triisopropylsilane (TIS) in a ratio of 95:5 for three hours at room temperature. The cleavage mixture and two subsequent TFA washings were filtered into a round bottom flask. The solution was roto-evaporated to a thick viscous solution. This solution was triturated with cold diethylether. The white precipitate was collected by filtration, washed with copious cold ether and dried under vacuum. The molecules were then dissolved in water at a concentration of 10 mg/mL, adjusting the pH to improve solubility. The solution was initially acidic in both cases. In the case of molecule 1, the pH was raised to about pH 8 with 2M and 100 mM KOH, then back-titrated to pH 7.

The nature of data set [3]: Self assembly/gelation with monovalent salts (KCl, NaCl). The following applies: mixing with 200 mM KCl or NaCl solutions. How it is done:
as §1
In all cases self assembled gels comprised of the nanofibers were formed similar to those described elsewhere (Hartgerink et al., 2001; Hartgerink et al., 2002). In contrast no self assembly or gel formation was observed when other negatively or positively charged peptide-amphiphiles were exposed to the NaCl or the KCl at concentrations up to 6 M. The fact that molecules 1 and 2 assemble in the presence of the monovalent salts sets them apart from the other molecules studied. […] The reason for this difference may be in the structure of these molecules. Both these molecules contain IKVAV (SEQ ID NO: 1) sequence at the c-terminus of the peptide segment. […]
Transmission Electron Micrographs of samples of the supramolecular compositions from the multi-dimensional peptide-amphiphiles, Molecule 1 and Molecule 2, were prepared as follows. A small sample of the supramolecular composition gel, prepared in bulk as described above, was smeared onto a holey carbon coated TEM grid (Quantifoil). […]

Data set [4] in a line: Self assembly with CaCl2 and hydroxyapatite mineralization of nanofiber gel (TEM, electron diffraction). How it is done: A liquid composition for the self assembly of (1) and mineralization of hydroxyapatite was prepared by dissolving […] NaH2PO4 (Aldrich) into 200 microliters of (1) at a concentration of 10 mg/ml in water. The pH of the solution was adjusted to 7.7.
The liquid composition containing (1) and NaH2PO4 was mixed with 40 micromoles of CaCl2 (Aldrich).
Samples of the gel after 2 hours, 1 day, and 5 days were mounted on carbon-coated TEM grids. TEM studies of the 1 and 5 day samples show a multi-crystalline material composed of plate like crystals˜5 nm thick and 50 to 100 nm long. The plate like crystals were similar to those observed in the mineralization experiments on the pre-assembled template.

Square brackets hold non-standard residues; d marks the D form. * marks the point of attachment. Palmitoyl = CCCCCCCCCCCCCCCC(=O)*; pS = N[C@@H](COP(=O)(O)O)C(=O)O; C16 = 16 carbon alkyl tail

Consider “ACAAGGGKRGDS [positively-charged peptide amphiphile, 16 carbon alkyl tail, amine terminated PA]”, for which the “gelation in ions of the same charge sign” value in data set [1] was “does not gel”. Take “C15H31C(O)-CCCCGGGEIKVAV-COOH (Palmitoyl-CCCCGGGEIKVAV-OH; cysteine pairing not given here) [PA 22]”: the “concentration at which the molecules dissolve” value in data set [2] was “about 10 mg/mL”. Further, the “gel formation with monovalent salt” value in data set [3] is reported as “self-supporting gel forms”. Turning to “C15H31C(O)-CCCCGGGEIKVAV-NH2 (Palmitoyl-CCCCGGGEIKVAV-NH2; cysteine pairing not given here) [Molecule 2]”, the “concentration at which the molecules dissolve” value in data set [2] is “about 10 mg/mL”. The “pH dependence of solubility” value in data set [2] (water, 10 mg/mL, pH adjusted with KOH) is given as “most soluble at low pH”. In addition, the “gel formation with monovalent salt” value in data set [3] is given as “self-supporting gel forms”. On to “C15H31C(O)-CCCCGGGS(P)RGD-COOH (Palmitoyl-CCCCGGG[pS]RGD-OH; cysteine pairing not given here) [PA 18]”, for which the “self assembled gel formation” value in data set [4] (addition of CaCl2 to 10 mg/ml peptide-amphiphile preloaded with NaH2PO4, pH 7.7) is “formed immediately”. The “time until gel turned a white color (mineralization started)” value in data set [4] (after CaCl2 addition) is recorded as “about 2 hours”. Consider “CCCCGGGSS(P)DS(P)D (C16-CCCCGGGS[pS]D[pS]D-OH; cysteine pairing not given here; also: C16 alkyl tail)”, for which the “gelation in ions of the same charge sign” value in data set [1] is “does not gel”.
